Assay results taken from patent US20240158511A1 (GENERAL HOSPITAL, published 2024).

B1: humanized N55D-substituted mAb107 (humanized IgG4κ mAb107) (antibody, V domains shown)
VH: QVQLVQSGAEVKKPGASVKVSCKPSGFNIKDIYMQWVRQAPGQRLEWIGRIDPADDKTKYDPKFQGRATITADTSASTAYLELSSLRSEDTAVYYCASEGHYGYDGYAMDYWGQGTTVTVSS
VL: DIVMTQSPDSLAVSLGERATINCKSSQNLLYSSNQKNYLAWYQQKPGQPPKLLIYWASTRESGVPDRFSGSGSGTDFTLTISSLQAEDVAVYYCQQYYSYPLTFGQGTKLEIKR
notes: The VH was joined to a human IgG4 constant region and the VL to a human kappa constant region; also called humAb107; humanized mAb107
B2: Humanized mutagenized mAb107 IgG4k heavy chain V5 (antibody, V domains shown)
VH: B1 VH
VL: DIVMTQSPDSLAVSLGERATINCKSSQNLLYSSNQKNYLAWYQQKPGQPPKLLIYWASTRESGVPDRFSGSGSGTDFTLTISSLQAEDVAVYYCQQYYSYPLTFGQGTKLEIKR
notes: The residue limits were counted on the printed translation; The heavy chain carries the N-to-D substitution in CDR2 and S228P in the IgG4 hinge; also called Humanized mutagenized anti-CD11b; humanized IgG4κ mAb107 containing Pro 228

Assays:
A-domain of CD11b [1] = target: T1, A-domain of CD11b (UniProt P11215 139-337); assay: BLI (Octet), A-domain of CD11b as ligand
T1 construct: domain: A-domain; Used as the ligand in BLI (Octet); also called CD11b A-domain; CD11bA domain
T1 sequence (P11215 139-337 limits assumed): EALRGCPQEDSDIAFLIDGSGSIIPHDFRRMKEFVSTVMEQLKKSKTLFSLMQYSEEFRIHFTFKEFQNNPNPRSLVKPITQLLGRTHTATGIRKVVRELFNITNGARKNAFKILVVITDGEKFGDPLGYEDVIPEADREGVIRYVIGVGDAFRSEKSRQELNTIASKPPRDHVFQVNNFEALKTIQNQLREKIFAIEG
Method: Production, purification, and evaluation: Expi293 cells (Thermo Fisher) were used to produce recombinant antibodies. Cells were grown on orbital shaker (125 rpm) in Expi293 Expression Medium (Thermo Fisher) at 37° C. in 5% CO2. Expi293 cells were transiently transfected with 1:1 heavy chain and light chain plasmids, using manufacturer's protocol. Culture supernatant was harvested after one week, and IgG was purified using Protein G agarose beads (Thermo Scientific). We routinely obtained 1-3 mg of purified IgG per 100 ml of cell culture. The protein sizes of the heavy and light chains and purity of the IgG were confirmed on SDSPAGE. Affinity of the humanized mAb107 vs. mouse mAb107 was measured using the A-domain of CD11b as ligand by Bio-layer interferometry (BLI) using the Octet Assay system.

A-domain of CD11b [2] = target: T1, A-domain of CD11b; assay: assay not given; presumably BLI on the CD11b A-domain as in Example 1; lower end of the printed range 5-9 nM

| Binder | Kd (A-domain of CD11b [1]) [nM] | Kd (A-domain of CD11b [2]) [nM] |
| --- | --- | --- |
| B1 | 5 to 9 |  |
| B2 |  | 5 to 9 |
